The data set can be described thus: self-splicing fitness, log relative to wild type (ln ratio); higher = more splicing; Tetrahymena group I intron in knt gene, E. coli kanamycin selection, DiMSum; sequences stand for … in CUCUCU…GGAGGGAAAAGUUAUCAGGCAUGCACCUGGUAGCUAGUCUUUAAACCAAUAGAUUGCAUCGGUUUAAAAGGCAAGACCGUCAAAUUGCGGGAAAGGGGUCAACAGCCGUUCAGUACCAAGUCUCAGGGGAAACUUUGAGAUGGCCUUGCAAAGGGUAUGGUAAUAAGCUGACGGACAUGGUCCUAACCACGCAGCCAAGUCCUAAGUCAACAGAUCUUCUGUUGAUAUGGAUGCAGUUCACAGACUAAAUGUCGGUCGGGGAAGAUGUAUUCUUCUCAUAAGAUAUAGUCGGACCUCUCCUUAAUGGGAGCUAGCGGAUGAAGUGAUGCAACACUGGAGCCGCUGGGAACUAAUUUGUAUGCGAAAGUAUAUUGAUUAGUUUUGGAGUACUCGUGGUCG
The essentials: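 Library with all eight P1ex-region intron nucleotides randomised, intron inside the knt kanamycin-resistance gene on pET-22b(+), in E. coli BL21(DE3). Cells grew overnight at 37°C or 30°C on LB agar with or without 25 μg/mL kanamycin (plus 100 μg/mL carbenicillin, 50 μM IPTG, 0.2% rhamnose), in six replicate transformations. Pooled colonies were amplicon-sequenced on Illumina HiSeq 2500. DiMSum fitness is the error-weighted combination of wild-type-normalised replicate fold changes, kanamycin versus none.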

The values below come from the supplement of paper PMC7877785.

± gives the uncertainty stated by the source.

Turning to ACUGAGCAAUAUUACGUGUA, the “self-splicing fitness (ln)” value reads like this: (30 °C) -3.51 ± 0.2; (37 °C) -2.5 ± 0.17.
Regarding ACUUAGCAAUAUUACGACAG, the “self-splicing fitness (ln)” value (30 °C) was -0.902 ± 0.08 and the “self-splicing fitness (ln)” value (37 °C) amounted to 0.0363 ± 0.1.
In the case of ACUUAGCAAUAUUACGACGU, the “self-splicing fitness (ln)” value (30 °C) was -0.13 ± 0.076 and the “self-splicing fitness (ln)” value (37 °C) stood at 0.549 ± 0.079.
For the sequence ACUUAGCAAUAUUACGCGCA, the “self-splicing fitness (ln)” value reads like this: (30 °C) -0.717 ± 0.093; (37 °C) -0.258 ± 0.13.
For ACUUAGCAAUAUUACGCGCC the same measures were -1.35 ± 0.18 and -0.348 ± 0.19.
ACUUAGCAAUAUUACGCGUA: the “self-splicing fitness (ln)” value was -1.82 ± 0.2 (30 °C) and -1.18 ± 0.2 (37 °C).
For ACUUAGCAAUAUUACGCGUG, in that order: -1.89 ± 0.1 and -1.13 ± 0.11.
For ACUUAGCAAUAUUACGCUAA, in that order: -2.99 ± 0.39 and -3.09 ± 0.29.
For ACUUAGCAAUAUUACGGAUA the same measures were -3.09 ± 0.28 and -1.15 ± 0.18.
With ACUUAGCAAUAUUACGGAUC, the “self-splicing fitness (ln)” value by setting is: (30 °C) -2.09 ± 0.11; (37 °C) -1.35 ± 0.16.
For ACUUAGCAAUAUUACGGCCG the same measures were -0.516 ± 0.071 and -0.251 ± 0.11.
In the case of ACUUAGCAAUAUUACGGGAG, the “self-splicing fitness (ln)” value is -1.75 ± 0.072 (30 °C) and -1.3 ± 0.085 (37 °C).
For ACUUAGCAAUAUUACGGUCU the same measures were -1.41 ± 0.088 and 0.0181 ± 0.082.
For ACUUAGCAAUAUUACGGUUG the same measures were -3.15 ± 0.17 and -1.43 ± 0.15.
As to ACUUAGCAAUAUUACGUCAG, the “self-splicing fitness (ln)” value runs as follows: (30 °C) -1.93 ± 0.11; (37 °C) -1.56 ± 0.12.
For ACUUAGCAAUAUUACGUCCA, in that order: -1.56 ± 0.2 and -0.528 ± 0.2.
As for ACUUAGCAAUAUUACGUGAG, the “self-splicing fitness (ln)” value was -0.348 ± 0.067 (30 °C) and -0.0975 ± 0.087 (37 °C).
For ACUUAGCAAUAUUACGUGGG, in that order: -2.95 ± 0.14 and -1.14 ± 0.12.
For ACUUAGCAAUAUUACGUUAA the same measures were -4.2 ± 0.46 and -2.02 ± 0.2.
For ACUUAGCAAUAUUACGUUUC, in that order: -4.28 ± 0.31 and -2.78 ± 0.27.
As for AGAAAGCAAUAUUACGAAGC, the “self-splicing fitness (ln)” value is -3.61 ± 0.47 (30 °C) and -2.91 ± 0.48 (37 °C).
For AGAAAGCAAUAUUACGAAUC the same measures were -3 ± 0.26 and -2.39 ± 0.24.
For AGAAAGCAAUAUUACGACUA the same measures were -0.244 ± 0.12 and -0.42 ± 0.12.
For AGAAAGCAAUAUUACGACUG, in that order: -1.04 ± 0.093 and -0.249 ± 0.12.
Consider AGAAAGCAAUAUUACGAGCC, for which the “self-splicing fitness (ln)” value runs as follows: (30 °C) -2.01 ± 0.17; (37 °C) -0.816 ± 0.21.
Consider AGAAAGCAAUAUUACGAGCU, for which the “self-splicing fitness (ln)” value by setting is: (30 °C) -0.0239 ± 0.055; (37 °C) 0.0125 ± 0.072.
For AGAAAGCAAUAUUACGAGUG, in that order: -2.27 ± 0.094 and -1.96 ± 0.12.
Regarding AGAAAGCAAUAUUACGAGUU, the “self-splicing fitness (ln)” value runs as follows: (30 °C) -1.58 ± 0.084; (37 °C) -0.668 ± 0.11.
For AGAAAGCAAUAUUACGAUGA the same measures were -0.734 ± 0.1 and -0.785 ± 0.11.
With AGAAAGCAAUAUUACGAUUC, the “self-splicing fitness (ln)” value runs as follows: (30 °C) -1.03 ± 0.095; (37 °C) -1.07 ± 0.14.
For AGAAAGCAAUAUUACGCAAC, in that order: -1.96 ± 0.25 and -2.02 ± 0.39.
For AGAAAGCAAUAUUACGCAGU, in that order: -2.5 ± 0.16 and -2.07 ± 0.2.
For AGAAAGCAAUAUUACGCCCU, in that order: 0.0807 ± 0.13 and 0.131 ± 0.14.
For the sequence AGAAAGCAAUAUUACGCUCA, the “self-splicing fitness (ln)” value is -0.775 ± 0.15 (30 °C) and 1.19 ± 0.18 (37 °C).
Regarding AGAAAGCAAUAUUACGCUCC, the “self-splicing fitness (ln)” value runs as follows: (30 °C) -1.89 ± 0.23; (37 °C) -1.19 ± 0.24.
AGAAAGCAAUAUUACGCUGG: the “self-splicing fitness (ln)” value (30 °C) was -3.7 ± 0.36 and the “self-splicing fitness (ln)” value (37 °C) was -2.77 ± 0.31.
With AGAAAGCAAUAUUACGCUUU, the “self-splicing fitness (ln)” value is -3.57 ± 0.23 (30 °C) and -3.24 ± 0.4 (37 °C).
For AGAAAGCAAUAUUACGGCGA, in that order: -0.0252 ± 0.17 and -1.02 ± 0.14.
For AGAAAGCAAUAUUACGGGCU, in that order: -1.04 ± 0.12 and -0.993 ± 0.13.
As to AGAAAGCAAUAUUACGGGGG, the “self-splicing fitness (ln)” value (30 °C) was -3.3 ± 0.15 and the “self-splicing fitness (ln)” value (37 °C) is -2.71 ± 0.17.
For AGAAAGCAAUAUUACGGUGU the same measures were -2.76 ± 0.098 and -1.28 ± 0.096.
As to AGAAAGCAAUAUUACGUCGA, the “self-splicing fitness (ln)” value runs as follows: (30 °C) -0.974 ± 0.069; (37 °C) -0.242 ± 0.08.
Turning to AGAAAGCAAUAUUACGUGCC, the “self-splicing fitness (ln)” value is, setting by setting: (30 °C) -0.45 ± 0.12; (37 °C) -0.309 ± 0.16.
AGAAAGCAAUAUUACGUUCG: the “self-splicing fitness (ln)” value (30 °C) is -0.631 ± 0.07 and the “self-splicing fitness (ln)” value (37 °C) turned out to be 0.484 ± 0.092.
As to AGAAAGCAAUAUUACGUUCU, the “self-splicing fitness (ln)” value by setting is: (30 °C) -2.72 ± 0.15; (37 °C) -1.41 ± 0.14.
For AGAAAGCAAUAUUACGUUUG, in that order: -2.48 ± 0.14 and -2.24 ± 0.21.
For AGACAGCAAUAUUACGAAGU, the “self-splicing fitness (ln)” value was -3.47 ± 0.14 (30 °C) and -2.26 ± 0.15 (37 °C).
For AGACAGCAAUAUUACGACAU, in that order: -0.107 ± 0.011 and -0.0048 ± 0.032.
Regarding AGACAGCAAUAUUACGAUCG, the “self-splicing fitness (ln)” value was -0.599 ± 0.072 (30 °C) and 0.599 ± 0.11 (37 °C).
For AGACAGCAAUAUUACGCAAG the same measures were -2.89 ± 0.11 and -0.553 ± 0.1.
As for AGACAGCAAUAUUACGCACU, the “self-splicing fitness (ln)” value runs as follows: (30 °C) -0.646 ± 0.12; (37 °C) -0.203 ± 0.13.
As to AGACAGCAAUAUUACGCAGA, the “self-splicing fitness (ln)” value was -2.56 ± 0.27 (30 °C) and -1.38 ± 0.2 (37 °C).
In the case of AGACAGCAAUAUUACGCAUA, the “self-splicing fitness (ln)” value reads like this: (30 °C) -2.73 ± 0.18; (37 °C) -1.23 ± 0.11.
Regarding AGACAGCAAUAUUACGCCAG, the “self-splicing fitness (ln)” value was -4.58 ± 0.46 (30 °C) and -3.27 ± 0.26 (37 °C).
On to AGACAGCAAUAUUACGCGCA, for which the “self-splicing fitness (ln)” value (30 °C) is -0.449 ± 0.084 and the “self-splicing fitness (ln)” value (37 °C) is 0.312 ± 0.13.
For AGACAGCAAUAUUACGCGCC, in that order: -0.399 ± 0.14 and -0.637 ± 0.12.
Regarding AGACAGCAAUAUUACGCUUU, the “self-splicing fitness (ln)” value by setting is: (30 °C) -3.18 ± 0.18; (37 °C) -1.23 ± 0.12.
Regarding AGACAGCAAUAUUACGGAUA, the “self-splicing fitness (ln)” value runs as follows: (30 °C) -2.97 ± 0.12; (37 °C) -2.17 ± 0.13.
For AGACAGCAAUAUUACGGGUC, in that order: -3.04 ± 0.18 and -2.92 ± 0.31.
For AGACAGCAAUAUUACGUCCC the same measures were -2.45 ± 0.18 and -0.529 ± 0.17.
For AGACAGCAAUAUUACGUCCG the same measures were -0.314 ± 0.12 and -0.305 ± 0.15.
On to AGACAGCAAUAUUACGUCGC, for which the “self-splicing fitness (ln)” value (30 °C) is -2.96 ± 0.2 and the “self-splicing fitness (ln)” value (37 °C) is -1.98 ± 0.19.
For AGACAGCAAUAUUACGUCUU, in that order: -4.54 ± 0.25 and -2.74 ± 0.18.
For AGACAGCAAUAUUACGUUCC, in that order: -2.2 ± 0.16 and -1.77 ± 0.18.
AGACAGCAAUAUUACGUUCG: the “self-splicing fitness (ln)” value by setting is: (30 °C) -0.687 ± 0.05; (37 °C) 0.0905 ± 0.072.
As for AGAGAGCAAUAUUACGACUU, the “self-splicing fitness (ln)” value by setting is: (30 °C) -1.7 ± 0.15; (37 °C) -0.522 ± 0.15.
For AGAGAGCAAUAUUACGAGAU the same measures were -2.92 ± 0.37 and -1.38 ± 0.27.
For AGAGAGCAAUAUUACGAGGG, in that order: -3.58 ± 0.39 and -2.35 ± 0.42.
AGAGAGCAAUAUUACGAGUG: the “self-splicing fitness (ln)” value (37 °C) is -2.15 ± 0.34.
For the sequence AGAGAGCAAUAUUACGGAAG, the “self-splicing fitness (ln)” value is -3.74 ± 0.33 (30 °C) and -1.32 ± 0.22 (37 °C).
AGAGAGCAAUAUUACGGCAC: under “37 °C”, the “self-splicing fitness (ln)” value was -1.68 ± 0.18.
AGAGAGCAAUAUUACGGUUU: the “self-splicing fitness (ln)” value is -1.98 ± 0.19 (30 °C) and -2.58 ± 0.25 (37 °C).
For AGAGAGCAAUAUUACGUAGA the same measures were -3.63 ± 0.25 and -2.65 ± 0.34.
With AGAGAGCAAUAUUACGUCAG, the “self-splicing fitness (ln)” value (30 °C) is -0.659 ± 0.45.
For the sequence AGAGAGCAAUAUUACGUGGC, the “self-splicing fitness (ln)” value runs as follows: (30 °C) -3.07 ± 0.25; (37 °C) -1.59 ± 0.35.
